From patent publication US5648233A, “Modified tumor cytotoxic factor (TCF) and DNA encoding such” (Snow Brand Milk Products Co., Ltd., priority 1992, dated 1997)
Several values for one entry are separate records, joined by “and”; a condition that tells them apart may be missing. Equal entries are not always repeated. Where two headings read alike, the source gives them in different places.

Assays:
Meth A sarcoma = test: Tumor cytotoxic activity (MTT); type: cell-based; details: Meth A cells, 5 days, serial dilution from 50 ng/mL, FIG. 9
Protocol: Tumor cytotoxic activities of TCF, TCF-3 and TCF-13 were measured. Meth A sarcoma was used as a target cell line. The cells were suspended in RPMI medium (GIBCO Co.) supplemented with 10% FCS at a final cell density of 2×10^4 cells per mL. Fifty microliters of the cell suspension was inoculated into each well in 96-well flat-bottomed microtiter plates. The purified TCF, TCF-3 and TCF-13 were serially diluted with RPMI medium from the concentration of 50 ng/mL, and the 50 μL of each diluted sample was added to each test well. After incubation at 37° C. for 5 days, MTT was added at a final concentration of 0.5 mg/ml and the plates were incubated at 37° C. Four hours later, 100 μL of the solution containing 10% SDS and […] was added to each well and left overnight at room temperature. Next day, the absorbance at 620 nm was measured as a parameter of the viable cell numbers in each well.

[1] = rat
Protocol: Anti-TCF polyclonal antibody was dissolved in 0.1M NaHCO3 solution to a final concentration of 10 μg/mL. One hundred microliters of the antibody solution was added to each well and the plates were left overnight at room temperature. The wells were filled with 50% solution of Block Ace in H2 O, incubated for 1 hour at room temperature and washed three times with washing solution (PBS containing 0.1% Tween 20 ). Plasma samples periodically collected from the rats which were intravenously injected with TCF or the modified TCFs were diluted with normal rat serum, when necessary. TCF solutions serially diluted with normal rat serum (from 10 ng/mL) was used as the standard TCF solution. Fifty microliters of the sample solution and 50 μL of the first buffer (0.2M Tris HCl pH 7.3 containing 50% Block Ace, 0.2M NaCl, 0.1% Tween 20, 0.2% CHAPS, 20 mM Benzamidine hydrochloride, and 10 mM EDTA) was mixed and added to each well. The plates were left for 3 hours at 37° C. and washed three times with the washing buffer. One hundred microliters of the peroxidase-labeled anti-TCF antibody solution, which was 400-fold diluted with 0.1M phosphate buffer pH 7.0 containing 10% Block Ace, 0.15M NaCl, 0.1% Tween 20, 4% rat serum and 0.5% mouse IgG, was added to each well. Plates were incubated for hours at 37° C. and washed three times with the washing buffer. Subsequently, 100 μL of substrate solution (0.4 mg/mL of o-phenylene diamine dihydrochloride and 0.006% H2 O2 in 0.1M citrate-phosphate buffer, pH 4.5) was added to each well and incubated at 37° C. for 30 minutes in a dark place. The enzyme reaction was stopped by addition of 50 μL of 6N H2 SO4. The absorbance at 492 nm was measured on an immuno reader (Corona Co.). Thus concentrations of the TCF or the modified TCFs in rat serum were determined.
Time course of plasma levels were examined by EIA in rats after the single intravenous injection of TCF and the modified TCFs. Hale Wister rats weighing about 200 g were used.

[2] = background statement; cited from earlier work
normal cells = details: background statement; cited from earlier work
tumor cells = details: background statement; cited from earlier work
[3] = single i.v. injection, 50 μg/kg, two-compartment model, Mean ± SD, *P < 0.05, **P < 0.01 vs wild-type TCF

TCF-3: modified TCF which lacks oligosaccharide chain 3 (Ser at 563rd replaced with Ala)
tumor cytotoxic activity (in words) (Meth A sarcoma): cytotoxic activities to Meth A cells in a dose-dependent manner | bioavailabilities (in words) ([1]; in vivo): larger bioavailabilities | AUC (in words) ([1]; in vivo, iv): larger AUC | CLtotal (total clearance) ([1]; in vivo, iv): 18.8 ± 2.1 mL/min/kg | metabolic fates (in words) ([1]; in vivo, iv): slower metabolic fates | plasma half-lives (in words) ([1]; in vivo, iv): prolonged | t1/2 α (plasma half-life of rapid phase) ([1]; in vivo, iv): 2.9 ± 0.3 min | t1/2 β (plasma half-life of slower phase) ([1]; in vivo, iv): 54.2 ± 8.3 min | total clearance (in words) ([1]; in vivo, iv): decreased

TCF: tumor cytotoxic factor derived from human fibroblast; wild-type glycoprotein with four N-linked oligosaccharide chains
tumor cytotoxic activity (in words) (Meth A sarcoma): cytotoxic activities to Meth A cells in a dose-dependent manner | t1/2 α (plasma half-life of rapid phase) [1, 3]: 2.4 ± 2.5 min and 2.4 ± 0.5 min | t1/2 β (plasma half-life of slower phase) [1, 3]: 15.6 ± 4.6 min | CLtotal (total clearance) ([1]; single i.v. injection, 50 μg/kg, Mean ± SD, **P < 0.01 vs wild-type TCF): 51.5 ± 13.9 mL/min/kg | half-life [2]: approximately 2 minutes | growth stimulating activity for normal cells (in words) (normal cells): growth stimulating activity for normal cells | cytotoxic activity against tumor cells (in words) (tumor cells): strong cytotoxic activity against tumor cells
